For the test, the target named is soluble PDGF-alpha receptor (UniProt P16234). Put plainly: proximity ligation competition assay in solution: 100 nM PDGF-AA added to 6.4 pM PDGF-BB, 2.5 nM soluble PDGF-alpha receptor and 5 pM aptamer probes; the signal comes from PDGF-BB displaced from the receptor, compared with no PDGF-AA.
Chain of UniProt P16234 (P16234 24-524 limits assumed): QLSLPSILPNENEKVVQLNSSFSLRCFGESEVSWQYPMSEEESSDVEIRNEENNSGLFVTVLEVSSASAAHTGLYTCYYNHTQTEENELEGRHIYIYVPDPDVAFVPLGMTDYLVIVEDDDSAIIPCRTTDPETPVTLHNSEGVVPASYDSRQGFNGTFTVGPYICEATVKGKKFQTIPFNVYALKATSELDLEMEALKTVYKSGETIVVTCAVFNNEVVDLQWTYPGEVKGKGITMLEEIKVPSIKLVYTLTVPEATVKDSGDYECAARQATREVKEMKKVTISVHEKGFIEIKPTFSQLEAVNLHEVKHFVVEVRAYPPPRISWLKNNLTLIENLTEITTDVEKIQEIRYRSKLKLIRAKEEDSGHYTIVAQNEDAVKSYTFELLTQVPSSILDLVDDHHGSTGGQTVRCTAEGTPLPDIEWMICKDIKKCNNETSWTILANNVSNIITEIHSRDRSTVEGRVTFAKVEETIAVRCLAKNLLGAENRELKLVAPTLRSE

“PDGF-AA (from UniProt P04085 87-211) (ligand)”: the fold increase in signal worked out at 3 fold.

(Values after patent publication US7306904.)
